Results: paper PMC3951674
Read-outs that look alike come from different tables or passages of the source.

Key:
[1] = target: L43A ubiquitin (UniProt P0CG48); assay: NMR titration
[2] = target: L43A ubiquitin (UniProt P0CG48); assay: 15N T1 relaxation
[3] = target: L43A ubiquitin (UniProt P0CG48); assay: NMR titration; remark: listed apart in the source

Row | Kd [1] | stoichiometry N [2] | Kd [3] | stoichiometry N [3] | Substance
1 | 28 µM | 1 | 26 µM |  | ubiquilin-1 UBA domain (UQ1-UBA) construct (from UniProt Q9UMX0 541-586) (domain or fragment)
2 |  |  |  | 1 | UBA2 domain of hHR23a (from UniProt P54725 1-363) (domain or fragment)
